{"source": "paper PMC9037348", "binders": {"B1": {"name": "γ1 subunit of the skeletal muscle voltage-gated calcium channel (mouse γ1) (natural protein)", "chain": "MSQTKTAKVRVTLFFILVGGVLAMVAVVTDHWAVLSPHLEHHNETCEAAHFGLWRICTARVAVHNKDKSCEHVTPSGEKNCSYFRHFNPGESSEIFEFTTQKEYSISAAAIAIFSLGFIIVGSICAFLSFGNKRDYLLRPASMFYAFAGLCLIVSVEVMRQSVKRMIDSEDTVWIEHYYSWSFACACAAFILLFLGGLFLLLFSLPRMPQNPWESCMDAEPEH"}}, "molecular_target": "GFP-CaV1.1e (embryonic splice variant of CaV1.1, lacking exon 29)"}
{"binder": "B1", "values": [{"measurement": "shift of the half-maximal potential of steady-state inactivation of CaV1.1e calcium currents to hyperpolarizing potentials on coexpression of γ1 (whole-cell patch clamp, HEK-TetOn-STAC3 cells)", "result": 13.7, "unit": "mV"}]}
